Tested on: CC(C)(COP(=O)(O)OP(=O)(O)OC[C@H]1O[C@@H](n2cnc3c(N)ncnc32)[C@H](O)[C@@H]1OP(=O)(O)O)[C@@H](O)C(=O)NCCC(=O)NCCSC(=O)CC(=O)O
Assay: purified protein
Conditions: sole substrate, 100 mM potassium phosphate, pH 8.0, 30 °C, 20-1000 μM malonyl-CoA

How did the Km (2 ng/μL enzyme, 8 min) turn out when EnPKS2 (Erythroxylum novogranatense) was run?
The Km was 50.54 µM.

And the kcat (2 ng/μL enzyme, 8 min)?
The kcat was 0.45 s⁻¹.

How did the Km (1 ng/μL enzyme, 5 min) turn out when EnPKS1 (Erythroxylum novogranatense) was run?
Its Km is 112.90 µM.

And the kcat (1 ng/μL enzyme, 5 min)?
Its kcat is 1.89 s⁻¹.

How did the Km (1 ng/μL enzyme, 5 min) turn out when AaPYKS1 (Anisodus acutangulus) was run?
Its Km is 70.38 µM.

What about the kcat (1 ng/μL enzyme, 5 min) of the same substance?
Its kcat is 2.24 s⁻¹.
